Changes are numbered by the printed parent chain. Blank lines part the entries; values can stand above or below the binder they belong to.
Target: T1, 融合至人IgG1 Fc段的人Siglec-15胞外结构域的重组蛋白Siglec-15-Fc (human, UniProt Q6ZMC9 20-263)
T1 construct: extracellular domain; also called 人Siglec-15重组蛋白; Siglec-15-Fc重组蛋白; not shown: human IgG1 Fc segment
T1 sequence (looked up): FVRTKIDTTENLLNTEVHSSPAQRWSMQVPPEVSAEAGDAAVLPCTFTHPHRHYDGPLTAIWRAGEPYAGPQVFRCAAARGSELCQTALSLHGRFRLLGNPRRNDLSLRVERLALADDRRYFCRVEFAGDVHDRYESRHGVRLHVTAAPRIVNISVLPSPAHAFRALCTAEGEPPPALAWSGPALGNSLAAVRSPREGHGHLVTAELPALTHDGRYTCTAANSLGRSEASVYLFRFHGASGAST
Experiment: indirect ELISA, plate coated with 0.5 ug/ml Siglec-15-Fc, purified antibody titrated from 10 ug/ml

EC50: 2.41 ng/mL
B1: KD075-C40 (antibody, V domains shown)
VH: EVRLQQSGPELVKPGASVKISCKASGYTFTDYNIHWMKQSHGKSLEWIGYIYPSFGGTAYNQKFKSKATLTVDNSSSTAYMEFRSLTSEDSAVYFCAVYGNYEGFAYWGQGTLVTVSA
VL: ENVLTQSPAIMSASLGEKVTMSCRASSSVNYMYWYQQKSDASPKLWIYYTSNLAPGVPARFSGSGSGNSYYLTISSMEGEDAATYYCQQFTSSPWTFGGGTKLEIK

EC50: 2.27 ng/mL
B2: KD075-C30 (antibody, V domains shown)
VH: DVQLVESGGGLVQPGGSRKLSCAASGFTFSSFGMHWVRQAPEKGLEWVAYISSGSSSIYYADTVKGRFTISRDNPKNTLFLQMTSLRSEDTAMYYCARTFPMDYWGQGTSVTVSS
VL: QAVVTQESALTTSPGETVTLTCRSSTGAVTISNYANWVQEKPDHLFTGLIGGTYNRSPGVPARFSGSLIGDKAALTITGAQTEDEAIYFCALWYSNHWVFGGGTKLTVL

EC50: 2.4 ng/mL
B3: KD075-C31 (antibody, V domains shown)
VH: B2 VH with G16T, A23T, M93I
VL: B2 VL

EC50: 1.97 ng/mL
B4: KD075-C9 (antibody, V domains shown)
VH: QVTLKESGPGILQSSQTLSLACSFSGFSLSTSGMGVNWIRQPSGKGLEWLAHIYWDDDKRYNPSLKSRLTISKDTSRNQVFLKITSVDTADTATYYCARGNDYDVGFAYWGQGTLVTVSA
VL: DIVMTQSHKFMSTSVGDRVSITCKASQDVSTAVVWYQQKPGQSPKLLIDSASYRYTGVPDRFTGSGSGTDFTFTISSVQAEDLAVYYCQQHYSTPRTFGGGTKLEIK

EC50: 2.3 ng/mL
B5: KD075-C18 (antibody, V domains shown)
VH: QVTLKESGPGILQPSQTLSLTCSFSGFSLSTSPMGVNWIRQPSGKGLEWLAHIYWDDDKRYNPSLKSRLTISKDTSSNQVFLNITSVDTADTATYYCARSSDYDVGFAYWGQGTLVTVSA
VL: B4 VL with V34A, P40L, D49S

EC50: 2.29 ng/mL
B6: KD075-C46 (antibody, V domains shown)
VH: EVKLVESEGGLVQPGSSMKLSCTASGFTFSDYYMAWVRQVPEKGLEWVAKINYDGSSTYYLDSLKSRFIISRDNAKNILYLQMSSLKSEDTATYYCARSYDYDGYYFDYWGQGTTLTVSS
VL: DIVLTQSPASLAMSLGKRATISCRASESVSIIGTNLIHWYQQKPGQPPKLLIYHASNLETGVPARFSGSGSRTDFTLTIDPVEEDDVAIYYCLQSRKIPWTFGGGTKLEIK

EC50: 2.25 ng/mL
B7: KD075-C52 (antibody, V domains shown)
VH: EVQLVESGGGLVKPGGSLKLSCAASGFTFSYYAMSWVRQTPEKRLEWVATVSDVDDYTYYPDNVKGRFNISRDNAKNNLYLQMRHLKSEDTAMYYCVRDGSYGWYFDVWGTGTTVTVSS
VL: DIVMTQSPSSLTVTAGEKVTMSCKSSQSLLNSGNQKNYLTWYQQKPGQTPKLLIYWASTRESGVPDRFTGSGSGTDFTLTISSVQAEDLAVYYCQNDYSYPLTFGTGTKLELK

From CN112159475A (NANJING KAEDI BIOTECH INC, dated 2021)
